# Experimental data reported in US20260209350A1 (Alector, published 2026).
# Residue numbers refer to the chain shown, from its start.
# T1: mouse TREM2 on cells (mouse, UniProt Q99NH8 19-227)
# T1 construct: whole, on cells; Used for the recombinant protein on BWZ/BW cells (with mouse DAP12) and for the native protein on mouse macrophages and dendritic cells; the cell type stands under assay; also called mTREM2; mTrem2
# T1 sequence (looked up): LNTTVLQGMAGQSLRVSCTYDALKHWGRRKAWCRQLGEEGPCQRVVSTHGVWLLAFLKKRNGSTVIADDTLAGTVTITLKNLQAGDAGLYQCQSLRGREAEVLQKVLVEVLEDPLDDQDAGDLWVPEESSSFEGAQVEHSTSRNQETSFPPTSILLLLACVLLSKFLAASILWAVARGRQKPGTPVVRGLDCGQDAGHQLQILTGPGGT
# T2: human TREM2 Fc fusion protein (human, UniProt Q9NZC2 19-174)
# T2 construct: also called hTREM2-Fc; not shown: Fc part not specified
# T2 sequence: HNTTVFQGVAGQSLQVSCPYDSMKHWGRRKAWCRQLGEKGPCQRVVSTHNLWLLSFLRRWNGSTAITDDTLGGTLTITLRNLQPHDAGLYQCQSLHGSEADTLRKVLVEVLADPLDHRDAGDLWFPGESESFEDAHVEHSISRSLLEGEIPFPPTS
# T3: mouse TREM2 Fc fusion protein (mouse, UniProt Q99NH8 19-171)
# T3 construct: also called mTREM2-Fc; not shown: Fc part not specified
# T3 sequence (looked up): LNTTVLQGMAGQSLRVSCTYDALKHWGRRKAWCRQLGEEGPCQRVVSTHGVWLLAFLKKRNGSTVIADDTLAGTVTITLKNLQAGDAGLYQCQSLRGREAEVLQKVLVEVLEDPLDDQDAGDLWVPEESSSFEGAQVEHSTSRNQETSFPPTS
# T4: human monomeric His tagged TREM2 protein (human, UniProt Q9NZC2 19-174)
# T4 construct: also called hTREM2-HIS
# T4 sequence: T2 sequence
# T5: human TREM2 on primary human cells (human, UniProt Q9NZC2 19-230)
# T5 construct: also called hTREM2; TREM2 on primary human dendritic cells (hDC) and human macrophages
# T5 sequence: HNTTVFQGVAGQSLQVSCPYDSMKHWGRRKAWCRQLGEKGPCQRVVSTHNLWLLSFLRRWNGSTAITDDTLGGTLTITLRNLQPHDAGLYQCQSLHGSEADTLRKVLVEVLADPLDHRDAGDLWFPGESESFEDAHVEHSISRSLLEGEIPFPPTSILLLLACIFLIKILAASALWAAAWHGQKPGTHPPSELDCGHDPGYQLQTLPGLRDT
# B1: Ab45 (antibody, human IgG1, V domains shown)
# VH: QVQLVQSGAEVKKPGASVKVSCKASGYTFTSYYMHWVRQAPGQGLEWMGIINPSGGSTSYAQKFQGRVTMTRDTSTSTVYMELSSLRSEDTAVYYCARGPGYTTALDYYYMDVWGKGTTVTVSS
# VL: EIVMTQSPATLSVSPGERATLSCRASQSVSSNLAWYQQKPGQAPRLLIYGASTRATGIPARFSGSGSGTEFTLTISSLQSEDFAVYYCQQLDDWFTFGGGTKVEIK
# notes: human IgG1
# B2: Ab1 (antibody, human IgG1, V domains shown)
# VH: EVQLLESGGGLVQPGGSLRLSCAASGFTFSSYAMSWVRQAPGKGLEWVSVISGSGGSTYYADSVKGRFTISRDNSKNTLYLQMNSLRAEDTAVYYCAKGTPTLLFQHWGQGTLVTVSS
# VL: EIVMTQSPATLSVSPGERATLSCRASQSVSSNLAWYQQKPGQAPRLLIYGASTRATGIPARFSGSGSGTEFTLTISSLQSEDFAVYYCQQLPYWPPTFGGGTKVEIK
# notes: human IgG1
# B3: Ab14 (antibody, human IgG1, V domains shown)
# VH: QVQLQESGPGLVKPSQTLSLTCTVSGGSISSGGYYWSWIRQHPGKGLEWIGNIYYSGSTVYNPSLKSRVTISVDTSKNQFSLKLSSVTAADTAVYYCARGLYGYGVLDVWGQGTMVTVSS
# VL: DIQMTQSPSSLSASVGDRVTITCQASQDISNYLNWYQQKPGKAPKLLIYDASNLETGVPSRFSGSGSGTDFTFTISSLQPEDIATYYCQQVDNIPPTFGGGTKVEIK
# notes: human IgG1
# B4: Ab22 (antibody, human IgG1, V domains shown)
# VH: EVQLVQSGAEVKKPGESLKISCKGSGYSFTTYWIGWVRQMPGKGLEWMGIIYPGDSDTRYSPSFQGQVTISADKSISTAYLQWSSLKASDTAMYYCARAGHYDGGHLGMDVWGQGTTVTVSS
# VL: EIVMTQSPGTLSLSPGERATLSCRASQSVSSSYLAWYQQKPGQAPRLLIYGASSRATGIPDRFSGSGSGTDFTLTISRLEPEDFAVYYCQQDDRSPYTFGGGTKVEIK
# notes: human IgG1
# B5: Ab9 (antibody, human IgG1, V domains shown)
# VH: EVQLVQSGAEVKKPGESLKISCKGSGYSFTSYWIGWVRQMPGKGLEWMGIIYPGDSDTTYSPSFQGQVTISADKSISTAYLQWSSLKASDTAMYYCARLHISGEVNWFDPWGQGTLVTVSS
# VL: EIVLTQSPATLSLSPGERATLSCRASQSVSSYLAWYQQKPGQAPRLLIYDASNRATGIPARFSGSGSGTDFTLTISSLEPEDFAVYYCQQFSYWPWTFGGGTKVEIK
# notes: human IgG1
# B6: Ab8 (antibody, human IgG1, V domains shown)
# VH: QLQLQESGPGLVKPSETLSLTCTVSGGSISSSSYYWGWIRQPPGKGLEWIGSISYSGSTYYNPSLKSRVTISVDTSKNQFSLKLSSVTAADTAVYYCARGPYRLLLGMDVWGQGTTVTVSS
# VL: DIQMTQSPSSLSASVGDRVTITCRASQSISSYLNWYQQKPGKAPKLLIYGASSLQSGVPSRFSGSGSGTDFTLTISSLQPEDFATYYCQQIDDTPITFGGGTKVEIK
# notes: human IgG1
# B7: Ab63 (antibody, human IgG1, V domains shown)
# VH: QVQLVQSGAEVKKPGASVKVSCKASGYTFTSYGISWVRQAPGQGLEWMGWISTYNGNTNYAQKLQGRVTMTTDTSTSTAYMELRSLRSDDTAVYYCARGSGSGYDSWYDWGQGTLVTVSS
# VL: DIQMTQSPSSVSASVGDRVTITCRASQGIDSWLAWYQQKPGKAPKLLIYAASSLQSGVPSRFSGSGSGTDFTLTISSLQPEDFATYYCQQAYSLPPTFGGGTKVEIK
# notes: human IgG1
# B8: Ab84 (antibody, human IgG1, V domains shown)
# VH: B7 VH
# VL: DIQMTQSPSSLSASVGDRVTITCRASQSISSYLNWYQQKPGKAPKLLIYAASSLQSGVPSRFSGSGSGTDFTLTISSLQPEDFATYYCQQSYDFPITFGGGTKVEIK
# notes: human IgG1
# B9: Ab2 (antibody, human IgG1, V domains shown)
# VH: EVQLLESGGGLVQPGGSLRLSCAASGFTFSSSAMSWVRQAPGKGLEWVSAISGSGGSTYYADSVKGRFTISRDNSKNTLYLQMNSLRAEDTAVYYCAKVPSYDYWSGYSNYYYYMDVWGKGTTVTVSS
# VL: B2 VL with M4L, S30G, L91Y, P92F, Y93F, W94Y
# notes: human IgG1
# B10: Ab71 (antibody, human IgG1, V domains shown)
# VH: QVQLVQSGAEVKKPGASVKVSCKASGYTFTSYYMHWVRQAPGQGLEWMGIINPSGGSTSYAQKFQGRVTMTRDTSTSTVYMELSSLRSEDTAVYYCARDISTHDYDLAFDIWGQGTMVTVSS
# VL: B4 VL with S54N, D92A, D93G, R94S, S95H, Y97F
# notes: human IgG1
# B11: Ab66 (antibody, human IgG1, V domains shown)
# VH: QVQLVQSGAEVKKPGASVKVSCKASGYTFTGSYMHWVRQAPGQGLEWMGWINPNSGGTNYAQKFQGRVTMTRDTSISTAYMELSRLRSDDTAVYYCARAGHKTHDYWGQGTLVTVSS
# VL: B5 VL with A9G, F91R, Y93A, W94Y, W96I
# notes: human IgG1
# B12: Ab68 (antibody, human IgG1, V domains shown)
# VH: QVQLVESGGGVVQPGRSLRLSCAASGFTFSSYGMHWVRQAPGKGLEWVALIWYDGSNKYYADSVKGRFTISRDNSKNTLYLQMNSLRAEDTAVYYCAKPGSMTDYWGQGTLVTVSS
# VL: B5 VL with F91R, S92A, Y93N, W94Y, W96I
# notes: human IgG1
# B13: Ab78 (antibody, human IgG1, V domains shown)
# VH: QVQLVESGGGVVQPGRSLRLSCAASGFTFSSYGMHWVRQAPGKGLEWVAVIWYDGSNKYYADSVKGRFTISRDNSKNTLYLQMNSLRAEDTAVYYCARTPYPWIYFDLWGRGTLVTVSS
# VL: B5 VL with F91A, S92D, Y93N, W96F
# notes: human IgG1
# B14: Ab7 (antibody, human IgG1, V domains shown)
# VH: QVQLVQSGAEVKKPGASVKVSCKASGYTFTSYYMHWVRQAPGQGLEWMGIINPSGGSTTYAQKFQGRVTMTRDTSTSTVYMELSSLRSEDTAVYYCARTSSKERDYWGQGTLVTVSS
# VL: B5 VL with N53K, F91R, S92I, Y93S, W94Y, W96I
# notes: human IgG1
# B15: Ab69 (antibody, human IgG1, V domains shown)
# VH: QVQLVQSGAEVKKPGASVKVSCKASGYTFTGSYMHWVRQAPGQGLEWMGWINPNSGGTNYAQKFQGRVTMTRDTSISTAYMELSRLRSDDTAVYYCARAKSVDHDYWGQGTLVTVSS
# VL: B5 VL with F91R, S92A, Y93D, W94Y, W96I
# notes: human IgG1
# Molecular target: T1, mouse TREM2 on cells
# Experiment: FACS, WT mouse dendritic cells
# Experimental: (§1) Cells were harvested, plated at 10⁵/ml in a 96 well plate, washed, and incubated in 100 ul PBS containing 10-50 ug/ml Mab and Fc blocking reagent for 1 hour in ice. Cells were then washed twice and incubated in 100 ul PBS containing 5 ug/ml PE-conjugated secondary antibody for 30 minutes in ice. Cells were washed twice in cold PBS and acquired on a BD FACS Canto. Data analysis and calculation of MFI values was performed with FlowJo (TreeStar) software version 10.0.7.
row,Binder,MFI [MFI]
1,B1,652
2,B2,393
3,B3,529
4,B4,451
5,B5,538

# Molecular target: T1, mouse TREM2 on cells
# Experiment: FACS, BWZ T2 cells
row,Binder,MFI [MFI]
1,B1,16300
2,B2,12600
3,B3,11600
4,B4,12500
5,B5,15700

# Molecular target: T2, human TREM2 Fc fusion protein
# Experiment: ForteBio or MSD-SET, avid
# Experimental: (§2) The binding affinity of each anti-TREM2 antibody was determined by measuring their KD by ForteBio or MSD-SET. […] Briefly, ForteBio affinity measurements were performed by loading IgGs on-line onto AHQ sensors. Sensors were equilibrated off-line in assay buffer for 30 min and then monitored on-line for 60 seconds for baseline establishment. Sensors with loaded IgGs were exposed to 100 nM antigen for 5 minutes, then transferred to assay buffer for 5 min for off-rate measurement. Kinetics were analyzed using the 1:1 binding model.
# (§3) Solution equilibrium titrations (SET) were performed in PBS+0.1% IgG-Free BSA (PBSF) with antigen held constant at 50 pM and incubated with 3- to 5-fold serial dilutions of antibody starting at 10 nM. Antibodies (20 nM in PBS) were coated onto standard bind MSD-ECL plates overnight at 4° C. or at room temperature for 30 min. Plates were then blocked for 30 min with shaking at 700 rpm, followed by three washes with wash buffer (PBSF+0.05% Tween 20). SET samples were applied and incubated on the plates for 150s with shaking at 700 rpm followed by one wash. Antigen captured on a plate was detected with 250 ng/mL sulfotag-labeled streptavidin in PBSF by incubation on the plate for 3 min. The plates were washed three times with wash buffer and then read on the MSD Sector Imager 2400 instrument using 1×Read Buffer T with surfactant. The percent free antigen was plotted as a function of titrated antibody in Prism and fit to a quadratic equation to extract the KD. To improve throughput, liquid handling robots were used throughout MSD-SET experiments, including SET sample preparation.
row,Binder,Kd [nM]
1,B1,0.229
2,B2,0.705
3,B3,0.551
4,B4,0.306
5,B5,0.348

# Molecular target: T3, mouse TREM2 Fc fusion protein
# Experiment: ForteBio or MSD-SET, avid
# Experimental: as §2, §3
row,Binder,Kd [nM]
1,B2,4.86
2,B3,0.62
3,B4,0.34

# Molecular target: T4, human monomeric His tagged TREM2 protein
# Experiment: ForteBio or MSD-SET, monovalent
row,Binder,Kd [nM]
1,B6,15
2,B7,49.6
3,B8,60.4
4,B9,24.1
5,B10,64.7
6,B11,60.7
7,B12,109
8,B13,37.3
9,B14,33.4
10,B15,59.7

# Molecular target: T2, human TREM2 Fc fusion protein
# Experiment: ForteBio or MSD-SET, avid
# Remark: another data set of the same source
row,Binder,Kd [nM]
1,B6,0.723
2,B7,1.13
3,B8,1.16
4,B9,0.592
5,B10,2.77
6,B11,1.98
7,B12,6.68
8,B13,0.851
9,B14,1.05
10,B15,3.75

# Molecular target: T3, mouse TREM2 Fc fusion protein
# Experiment: ForteBio or MSD-SET, avid
# Remark: another data set of the same source
Binder,binding result,Kd [nM]
B6,no binding,–
B7,no binding,–
B8,no binding,–
B9,no binding,–
B10,no binding,–
B11,–,3.88
B12,–,3.26
B13,no binding,–
B14,–,1.11
B15,–,3.4

# Molecular target: T5, human TREM2 on primary human cells
# Experiment: FACS, primary human dendritic cells
row,Binder,hDC % positive [%]
1,B1,78.8
2,B2,64.9
3,B3,75.8
4,B4,76.9
5,B5,65.8

# Molecular target: T5, human TREM2 on primary human cells
# Experiment: cell-based or functional assay
Binder,Induction of CD86 & CD83 Human hDC plate (% CD83+CD86+ cells) [%],Induction of CD86 & CD83 hDC solution (% CD83+CD86+ cells) [%]
B1,65.5,4.3
B2,87.2,3
B3,78.7,1.9
B4,74.5,1.2
B5,79.3,5.6

# Molecular target: T4, human monomeric His tagged TREM2 protein
# Experiment: ForteBio or MSD-SET, monovalent
# Remark: another data set of the same source
# Experimental: as §2, §3
row,Binder,Kd [nM]
1,B1,0.654
2,B2,6.67
3,B3,3.19
4,B4,1.01
5,B5,6.32

# Molecular target: T1, mouse TREM2 on cells
# Experiment: FACS, mTrem2 cells
row,Binder,MFI [MFI]
1,B6,523
2,B7,1720
3,B8,799
4,B9,1430
5,B10,804
6,B11,4100
7,B12,2100
8,B13,433
9,B14,10900
10,B15,629

# Molecular target: T1, mouse TREM2 on cells
# Experiment: FACS, WT mouse macrophages
# Experimental: as §1
row,Binder,MFI [MFI]
1,B1,141
2,B2,82.3
3,B3,145
4,B4,110
5,B5,171
